{
  "source": "paper doi:10.1101/2021.02.02.429416",
  "key": {"Aflibercept [1]": {"target": "Aflibercept", "experiment": "ELISA"}, "Aflibercept [2]": {"target": "Aflibercept", "experiment": "BLI"}},
  "data": [
    {"substance": "Human VEGF-A121 (ligand)", "values": [
      {"measurement": "EC50", "setting": "Aflibercept [1]", "value": 1.63, "unit": "nM"}
    ]},
    {"substance": "Human VEGF-A165 (ligand)", "values": [
      {"measurement": "Kd", "setting": "Aflibercept [2]", "value": 0.00269, "unit": "nM"},
      {"measurement": "EC50", "setting": "Aflibercept [1]", "value": 1.69, "unit": "nM"}
    ]}
  ]
}
